Here are results for 3 molecules from patent publication US20200165349A1 (Genmab, published 2020).

The target in assay [1] is T1, Human PD-L1 (human, UniProt Q9NZQ7 19-290).
T1 construct: Amino acids 1-18 are stated to be a predicted signal peptide; also called CD274; B7H1
Kind of assay: flow cytometry on MDA-MB-231 tumor cells. (In general: In flow cytometry, cells or beads pass a laser one at a time.)

Assay [2] has as its target T2, Human CD137 (human, UniProt Q07011 24-255).
T2 construct: also called hCD137 wt; 4-1BB
Description: flow cytometry on transfected HEK293T-17 cells, 1 µg/mL antibody.

The target in assay [3] is T3, Human CD137 shuffle 5 (amino acids 48-88 of African elephant CD137) (human with African elephant residues …, UniProt Q07011 24-255).
T3 construct: also called shuffle construct 5; shuffle 5/elephant
T3 chain: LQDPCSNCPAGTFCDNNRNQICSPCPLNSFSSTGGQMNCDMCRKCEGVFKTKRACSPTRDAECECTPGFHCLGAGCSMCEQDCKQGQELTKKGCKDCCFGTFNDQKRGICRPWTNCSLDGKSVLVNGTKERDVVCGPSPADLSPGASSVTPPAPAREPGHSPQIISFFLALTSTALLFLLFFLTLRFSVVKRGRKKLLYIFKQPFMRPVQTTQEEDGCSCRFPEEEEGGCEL
Description: flow cytometry on transfected HEK293T-17 cells.

For assay [4], the target named is T4, Wild boar CD137 (wild boar (Sus scrofa)).
T4 construct: Amino acids 1-23 are stated to be a predicted signal peptide; Expressed on HEK293T-17 cells; also called Sus scrofa CD137
T4 chain: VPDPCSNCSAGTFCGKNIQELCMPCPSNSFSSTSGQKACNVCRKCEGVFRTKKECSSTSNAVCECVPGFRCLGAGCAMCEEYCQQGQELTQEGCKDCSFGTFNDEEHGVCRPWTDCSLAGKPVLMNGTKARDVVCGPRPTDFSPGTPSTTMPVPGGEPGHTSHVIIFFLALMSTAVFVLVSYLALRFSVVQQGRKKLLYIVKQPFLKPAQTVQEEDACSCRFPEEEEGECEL
Kind of assay: flow cytometry on transfected HEK293T-17 cells.

The target of assay [5] is T5, African elephant CD137 (African elephant (Loxodonta africana)).
T5 construct: Amino acids 1-23 are stated to be a predicted signal peptide; Expressed on HEK293T-17 cells; also called Loxodonta africana CD137
T5 chain: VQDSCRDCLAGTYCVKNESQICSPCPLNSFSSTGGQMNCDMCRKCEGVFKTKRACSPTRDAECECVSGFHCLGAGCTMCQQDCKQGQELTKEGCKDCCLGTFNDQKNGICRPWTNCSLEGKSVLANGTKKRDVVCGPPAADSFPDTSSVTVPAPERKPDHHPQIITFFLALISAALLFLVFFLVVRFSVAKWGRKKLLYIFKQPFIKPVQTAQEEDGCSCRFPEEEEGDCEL
Description: flow cytometry on transfected HEK293T-17 cells.

T1 sequence (Q9NZQ7 19-290): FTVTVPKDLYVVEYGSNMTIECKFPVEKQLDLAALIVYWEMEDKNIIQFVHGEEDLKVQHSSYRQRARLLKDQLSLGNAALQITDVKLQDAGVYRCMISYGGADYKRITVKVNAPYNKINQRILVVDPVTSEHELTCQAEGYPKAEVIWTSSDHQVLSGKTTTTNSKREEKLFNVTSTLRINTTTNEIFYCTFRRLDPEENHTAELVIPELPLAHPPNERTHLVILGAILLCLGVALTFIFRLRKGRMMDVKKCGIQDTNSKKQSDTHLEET

B1: PD-L1-547-FEAR (antibody, human IgG1, lambda, V domains shown)
VH: EVQLLEPGGGLVQPGGSLRLSCEASGSTFSTYAMSWVRQAPGKGLEWVSGFSGSGGFTFYADSVRGRFTISRDSSKNTLFLQMSSLRAEDTAVYYCAIPARGYNYGSFQHWGQGTLVTVSS
VL: SYVLTQPPSVSVAPGQTARITCGGNNIGSKSVHWYQQKPGQAPVLVVYDDNDRPSGLPERFSGSNSGNTATLTISRVEAGDEADYYCQVWDSSSDHVVFGGGTKLTVLG
notes: Human IgG1 lambda with L234F, L235E, D265A and K409R
Turning to B1, in assay [1], the binding result is listed as “binds”.

B2: b12-FEAL×PD-L1-547-FEAR (bispecific antibody, not shown: large carriers)
heavy 1: QVQLVQSGAEVKKPGASVKVSCQASGYRFSNFVIHWVRQAPGQRFEWMGWINPYNGNKEFSAKFQDRVTFTADTSANTAYMELRSLRSADTAVYYCARVGPYSWDDSPQDNYYMDVWGKGTTVIVSSASTKGPSVFPLAPSSKSTSGGTAALGCLVKDYFPEPVTVSWNSGALTSGVHTFPAVLQSSGLYSLSSVVTVPSSSLGTQTYICNVNHKPSNTKVDKRVEPKSCDKTHTCPPCPAPEFEGGPSVFLFPPKPKDTLMISRTPEVTCVVVAVSHEDPEVKFNWYVDGVEVHNAKTKPREEQYNSTYRVVSVLTVLHQDWLNGKEYKCKVSNKALPAPIEKTISKAKGQPREPQVYTLPPSREEMTKNQVSLTCLVKGFYPSDIAVEWESNGQPENNYKTTPPVLDSDGSFLLYSKLTVDKSRWQQGNVFSCSVMHEALHNHYTQKSLSLSPGK
light 1: EIVLTQSPGTLSLSPGERATFSCRSSHSIRSRRVAWYQHKPGQAPRLVIHGVSNRASGISDRFSGSGSGTDFTLTITRVEPEDFALYYCQVYGASSYTFGQGTKLERK
heavy 2: EVQLLEPGGGLVQPGGSLRLSCEASGSTFSTYAMSWVRQAPGKGLEWVSGFSGSGGFTFYADSVRGRFTISRDSSKNTLFLQMSSLRAEDTAVYYCAIPARGYNYGSFQHWGQGTLVTVSSASTKGPSVFPLAPSSKSTSGGTAALGCLVKDYFPEPVTVSWNSGALTSGVHTFPAVLQSSGLYSLSSVVTVPSSSLGTQTYICNVNHKPSNTKVDKRVEPKSCDKTHTCPPCPAPEFEGGPSVFLFPPKPKDTLMISRTPEVTCVVVAVSHEDPEVKFNWYVDGVEVHNAKTKPREEQYNSTYRVVSVLTVLHQDWLNGKEYKCKVSNKALPAPIEKTISKAKGQPREPQVYTLPPSREEMTKNQVSLTCLVKGFYPSDIAVEWESNGQPENNYKTTPPVLDSDGSFFLYSRLTVDKSRWQQGNVFSCSVMHEALHNHYTQKSLSLSPGK
light 2: SYVLTQPPSVSVAPGQTARITCGGNNIGSKSVHWYQQKPGQAPVLVVYDDNDRPSGLPERFSGSNSGNTATLTISRVEAGDEADYYCQVWDSSSDHVVFGGGTKLTVLGQPKAAPSVTLFPPSSEELQANKATLVCLISDFYPGAVTVAWKADSSPVKAGVETTTPSKQSNNKYAASSYLSLTPEQWKSHRSYSCQVTHEGSTVEKTVAPTECS
notes: also called monovalent PD-L1 antibody; monovalent PD-L1-control antibody
For the molecule B2, the binding result in assay [1] was “binds”.

B3: CD137-009 (antibody, human IgG1, kappa, V domains shown)
VH: QSLEESGGRLVTPGTPLTLTCTVSGFSLNDYWMSWVRQAPGKGLEWIGYIDVGGSLYYASWAKGRFTISRTSTTVDLKMTSLTTEDTATYFCARGGLTYGFDLWGPGTLVTVSS
VL: DIVMTQTPASVSEPVGGTVTINCQASEDISSYLAWYQQKPGQRPKRLIYGASDLASGVPSRFSASGSGTEYALTISDLESADAATYYCHYYATISGLGVAFGGGTEVVVKR
notes: Rabbit variable regions on human IgG1; also called chimeric CD137 antibody; rabbit anti-CD137-009
For the molecule B3, the binding result in assay [2] is listed as “binds”; in assay [3], “no binding (tested: 1 µg/mL)”; in assay [4], “no binding (tested: 1 µg/mL)”; in assay [5], “no binding (tested: 1 µg/mL)”.
